From patent US20260125469A1 (Hoffmann-La Roche, published 2026)

Experiments:
[1] = target: T1, Human CD3ε stalk-Fc(knob)-Avi/CD3δ stalk-Fc(hole) (human); experiment: SPR on immobilized human CD3ε/δ after stress, relative to sample kept at -80°C pH 6
T1 construct: Heterodimer of CD3 delta and CD3 epsilon ectodomains fused to human Fc with knob-into-hole; also called human CD3ε/δ; CD3 antigen
Description: In order to assess the effect of the deamidation site removal and its effect on the stability of the antibodies, the optimized anti-CD3 antibodies (in TCB format) were incubated for 14 days at 37° C., pH 7.4 and at 40° C., pH 6 and further analyzed by SPR for their binding capability to human CD3ε/δ. Samples stored at −80° C. pH 6 were used as reference. The reference samples and the samples stressed at 40° C. were in 20 mM His, 140 mM NaCl, pH 6.0, and the samples stressed at 37° C. in PBS, pH 7.4, all at a concentration of 1.0 mg/ml. After the stress period (14 days) samples in PBS were dialyzed back to 20 mM His, 140 mM NaCl, pH 6.0 for further analysis.
All SPR experiments were performed on a Biacore T200 instrument (GE Healthcare) at 25° C. with HBS-P+ (10 mM HEPES, 150 mM NaCl pH 7.4, 0.05% Surfactant P20) as running and dilution buffer. Biotinylated human CD3ε/δ (see Example 3, SEQ ID NOs 41 and 42) as well as biotinylated anti-huIgG (Capture Select, Thermo Scientific, #7103262100) were immobilized on a Series S Sensor Chip SA (GE Healthcare, #29104992), resulting in surface densities of at least 1000 resonance units (RU). Anti-CD3 antibodies with a concentration of 2 μg/ml were injected for 30 s at a flow rate of 5 μl/min, and dissociation was monitored for 120 s. The surface was regenerated by injecting 10 mM glycine pH 1.5 for 60 s. Bulk refractive index differences were corrected by subtracting blank injections and by subtracting the response obtained from a blank control flow cell. For evaluation, the binding response 5 seconds after injection end was taken. To normalize the binding signal, the CD3 binding was divided by the anti-huIgG response (the signal (RU) obtained upon capture of the CD3 antibody on the immobilized anti-huIgG antibody). The relative binding activity was calculated by referencing each temperature stressed sample to the corresponding, non-stressed sample.
The experiment was performed as described in Example 4, using the TCB molecules prepared in Example 7.

[2] = target: T2, human GPRC5D on stably transduced CHO-K1 cells (human, UniProt Q9NZD1 1-345); experiment: flow cytometry on CHO-K1 cells stably transduced with human GPRC5D, performed as in Example 11
T2 construct: whole, on cells; also called CHO-hGPRC5D cells
Description: The binding of the CEACAM5-TCB molecules prepared in Example 7 was tested on CEACAM5 (CEA)-positive tumor cells (LS-180 cells, ECACC #87021202) and CD3-expressing immortalized T lymphocyte cells (GloResponse Jurkat NFAT-RE-luc2P; Promega, #CS176501). Briefly, adherent LS-180 cells were detached, using Cell Dissociation Buffer (Gibco), counted, checked for viability and re-suspended at 2 million cells per ml in FACS buffer (PBS with 0.1% BSA). Likewise, Jurkat suspension cells were harvested and plated for subsequent stainings. 100 μl of the cell suspension (containing 0.2 million cells) were incubated in round-bottom 96-well plates for 30 min at 4° C. with increasing concentrations of the CEACAM5-TCB molecules (4 pM-300 nM). Cells were washed twice with cold PBS 0.1% BSA (FACS buffer), re-incubated for further 30 min at 4° C. with the Alexa Fluor 647-conjugated AffiniPure F(ab′)2 Fragment Goat Anti-Human IgG, Fcγ Fragment Specific Antibody (Jackson Immuno Research Lab #109-606-008, diluted 1:50 in FACS buffer) and washed twice with cold PBS 0.1% BSA thereafter. The staining was fixed for 20 min at 4° C. in the dark, using 150 μl of 2% PFA in FACS buffer per well. Fluorescence was analyzed by FACS using a FACS Fortessa (Software FACS Diva). Binding curves were obtained using GraphPadPrism6.
The binding of the GPRC5D-TCB molecules prepared in Example 7 was tested using CHO-transfectants stably transduced to express human GPRC5D (CHO-K1, ATCC) and CD3-expressing immortalized T lymphocyte cells (GloResponse Jurkat NFAT-RE-luc2P; Promega, #CS176501). The experiment was performed as described in Example 11.

[3] = target: T3, Cynomolgus CD3ε stalk-Fc(knob)-Avi/CD3δ stalk-Fc(hole) (cynomolgus); experiment: SPR, TCB captured by anti-PG antibody, antigen as analyte, 25°C
T3 construct: also called cynomolgus CD3ε/δ
Source text: (§1) For affinity measurements, TCB molecules were captured on a C1 sensorchip (GE Healthcare) surface with immobilized anti-Fc(P329G) IgG (an antibody that specifically binds human IgG₁ Fc(P329G); “anti-PG antibody”—see WO 2017/072210, incorporated herein by reference). The experimental setup is schematically depicted in FIG. 3. Capture IgG was coupled to the sensorchip surface by direct immobilization of around 400 resonance units (RU) using the standard amine coupling kit (GE Healthcare Life Sciences).
(§2) Kinetic constants were derived using the Biacore T200 Evaluation Software (GE Healthcare Life Sciences), to fit rate equations for 1:1 Langmuir binding by numerical integration. The half-life (t_{1/2}) of the interaction was calculated using the formula t_{1/2}=ln2/koff.
(§3) To analyze the interaction to CD3, TCB molecules were captured for 240 s at 25 nM with a flow rate of 10 μl/min. Human and cynomolgus CD3F stalk-Fc(knob)-Avi/CD36-stalk-Fc(hole) were passed at a concentration of 0.14-100 nM with a flow rate of […] through the flow cells for 240 s. The dissociation was monitored for 800 s.

[4] = target: T1, Human CD3ε stalk-Fc(knob)-Avi/CD3δ …; experiment: as above
Source text: as §1, §2, §3

[5] = target: human CD3 on cells (CD3ε) (human, UniProt P07766 23-207); experiment: cell-based or functional assay
Chain of human CD3 on cells (CD3ε) (P07766 23-207 limits assumed): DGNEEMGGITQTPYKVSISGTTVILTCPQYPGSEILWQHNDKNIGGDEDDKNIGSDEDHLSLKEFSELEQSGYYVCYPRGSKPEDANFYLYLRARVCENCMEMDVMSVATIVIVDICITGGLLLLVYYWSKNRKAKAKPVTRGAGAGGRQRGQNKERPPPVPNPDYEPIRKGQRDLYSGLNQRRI

T2 sequence (Q9NZD1 whole entry): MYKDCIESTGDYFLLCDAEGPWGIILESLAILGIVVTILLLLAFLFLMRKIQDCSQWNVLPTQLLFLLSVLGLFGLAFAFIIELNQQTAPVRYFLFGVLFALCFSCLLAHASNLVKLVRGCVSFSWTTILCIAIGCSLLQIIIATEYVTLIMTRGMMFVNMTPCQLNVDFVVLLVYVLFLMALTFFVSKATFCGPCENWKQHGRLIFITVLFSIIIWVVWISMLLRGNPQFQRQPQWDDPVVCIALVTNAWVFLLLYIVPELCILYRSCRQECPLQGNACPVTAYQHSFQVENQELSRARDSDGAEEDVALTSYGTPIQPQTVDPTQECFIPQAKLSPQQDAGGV

binding activity [%] after 2 weeks at pH 6.0/40°C [1]: 100%
binding activity [%] after 2 weeks at pH 7.4/37°C [1]: 97%
binding result [2]: binds
Kd [3]: 0.241 nM
koff [3]: 0.000866 s⁻¹
kon [3]: 3.61e+06 M⁻¹ s⁻¹
t1/2 [3]: 13.3 min
Kd [4]: 0.377 nM
koff [4]: 0.0013 s⁻¹
kon [4]: 3.46e+06 M⁻¹ s⁻¹
t1/2 [4]: 8.89 min
EC50 20 h (pM), T-cell mediated lysis of GPRC5D-expressing NCI-H929 cells [5]: 0.31 pM
B1: GPRC5D-TCB, GPRC5D CD3 variant P035.093 (bispecific antibody, human IgG1, kappa, L234A L235A)
heavy 1: not shown
heavy 2: EVQLVESGGGVVQPGRSLRLSCAASGFSFSNYGMAWVRQAPGKGLEWVASISTGGGNTYYRDSVKGRFTISRDNAKNTLYLQMNSLRAEDTAVYYCTRHDRGGLYWGQGTMVTVSSASTKGPSVFPLAPSSKSTSGGTAALGCLVEDYFPEPVTVSWNSGALTSGVHTFPAVLQSSGLYSLSSVVTVPSSSLGTQTYICNVNHKPSNTKVDEKVEPKSCDKTHTCPPCPAPEAAGGPSVFLFPPKPKDTLMISRTPEVTCVVVDVSHEDPEVKFNWYVDGVEVHNAKTKPREEQYNSTYRVVSVLTVLHQDWLNGKEYKCKVSNKALGAPIEKTISKAKGQPREPQVCTLPPSRDELTKNQVSLSCAVKGFYPSDIAVEWESNGQPENNYKTTPPVLDSDGSFFLVSKLTVDKSRWQQGNVFSCSVMHEALHNHYTQKSLSLSP
light 1: DIVMTQSPLSLPVTPGEPASISCRSSKSLLHSNGITYVYWYLQKPGQSPQLLIYRMSNRASGVPDRFSGSGSGTDFTLKISRVEAEDVGVYHCGQLLENPYTFGQGTKLEIKRTVAAPSVFIFPPSDRKLKSGTASVVCLLNNFYPREAKVQWKVDNALQSGNSQESVTEQDSKDSTYSLSSTLTLSKADYEKHKVYACEVTHQGLSSPVTKSFNRGEC
light 2: EVQLLESGGGLVQPGGSLRLSCAASGFTFSSYAMNWVRQAPGKGLEWVSRIRSKYNNYATYYADSVKGRFTISRDDSKNTLYLQMNSLRAEDTAVYYCVRASNFPASYVSYFAYWGQGTLVTVSSASVAAPSVFIFPPSDEQLKSGTASVVCLLNNFYPREAKVQWKVDNALQSGNSQESVTEQDSKDSTYSLSSTLTLSKADYEKHKVYACEVTHQGLSSPVTKSFNRGEC
notes: 2+1 IgG CrossFab, inverted; human IgG1 Fc, knob-into-hole, PGLALA; also called P035.093 in GPRC5D-TCB format
